Data reported in patent publication US20150259408A1 (PROTHENA BIOSCIENCES, published 2015).
Where a chain is given by its changes, count along the chain named.

T1: human LAMA4 LG1-3 fragment displayed on 293 cells (pDisplay) (human, UniProt Q16363 830-1430, limits assumed)
T1 sequence: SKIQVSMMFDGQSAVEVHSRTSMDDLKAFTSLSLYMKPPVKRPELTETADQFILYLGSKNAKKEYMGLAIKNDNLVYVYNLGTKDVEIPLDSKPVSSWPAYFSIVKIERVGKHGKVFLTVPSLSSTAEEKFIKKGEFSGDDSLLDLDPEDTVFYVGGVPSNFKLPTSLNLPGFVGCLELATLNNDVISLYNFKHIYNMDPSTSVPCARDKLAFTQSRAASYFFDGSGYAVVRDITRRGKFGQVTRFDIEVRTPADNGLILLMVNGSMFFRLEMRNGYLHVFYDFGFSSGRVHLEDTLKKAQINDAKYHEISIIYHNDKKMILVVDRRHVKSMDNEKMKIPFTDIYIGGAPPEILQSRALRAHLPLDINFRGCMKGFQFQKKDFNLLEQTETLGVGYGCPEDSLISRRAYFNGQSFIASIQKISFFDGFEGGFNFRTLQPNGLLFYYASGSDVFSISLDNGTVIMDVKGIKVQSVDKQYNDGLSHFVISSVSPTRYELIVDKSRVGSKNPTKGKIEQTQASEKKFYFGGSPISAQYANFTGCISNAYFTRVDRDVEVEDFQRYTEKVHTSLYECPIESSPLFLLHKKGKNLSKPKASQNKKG

T2: recombinant human His-laminin-α4 (R&D Systems) (human, UniProt Q16363-2 826-1816, limits assumed)
T2 construct: range 826-end (only the start, Q826, is stated); Bought protein; also called Human LAMA4; human His-laminin-α4 fragment starting at Q826; not shown: 6x His tag
T2 sequence (looked up): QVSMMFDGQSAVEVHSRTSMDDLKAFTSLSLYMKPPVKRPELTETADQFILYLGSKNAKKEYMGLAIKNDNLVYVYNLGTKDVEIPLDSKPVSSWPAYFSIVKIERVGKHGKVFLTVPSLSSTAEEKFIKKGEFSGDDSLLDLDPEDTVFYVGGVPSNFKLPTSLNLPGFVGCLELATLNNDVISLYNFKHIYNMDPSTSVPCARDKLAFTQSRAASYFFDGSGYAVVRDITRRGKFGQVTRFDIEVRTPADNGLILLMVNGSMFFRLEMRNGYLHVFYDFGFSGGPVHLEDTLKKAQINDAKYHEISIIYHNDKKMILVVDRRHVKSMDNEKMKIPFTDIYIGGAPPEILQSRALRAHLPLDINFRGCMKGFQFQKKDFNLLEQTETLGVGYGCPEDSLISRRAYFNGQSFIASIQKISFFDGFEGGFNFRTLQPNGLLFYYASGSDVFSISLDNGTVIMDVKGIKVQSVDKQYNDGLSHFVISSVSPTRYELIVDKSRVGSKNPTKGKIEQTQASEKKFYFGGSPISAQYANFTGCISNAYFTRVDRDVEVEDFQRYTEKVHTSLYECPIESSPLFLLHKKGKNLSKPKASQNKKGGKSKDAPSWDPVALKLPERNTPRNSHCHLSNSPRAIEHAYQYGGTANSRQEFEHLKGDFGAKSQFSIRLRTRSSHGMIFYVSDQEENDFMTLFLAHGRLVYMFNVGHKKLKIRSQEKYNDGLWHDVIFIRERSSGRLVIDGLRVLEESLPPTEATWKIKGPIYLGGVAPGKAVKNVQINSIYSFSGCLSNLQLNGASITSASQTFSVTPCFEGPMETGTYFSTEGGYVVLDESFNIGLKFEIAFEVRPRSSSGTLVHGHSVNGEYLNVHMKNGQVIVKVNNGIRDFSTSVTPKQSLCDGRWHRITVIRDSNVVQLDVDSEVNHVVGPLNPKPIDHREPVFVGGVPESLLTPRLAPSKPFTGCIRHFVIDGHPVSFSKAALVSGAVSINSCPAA

T3: recombinant mouse His-laminin-α4 (R&D Systems) (mouse, UniProt P97927 826-1816, limits assumed)
T3 construct: range 826-end (only the start, Q826, is stated); Bought protein; also called Murine LAMA4; not shown: 6x His tag
T3 sequence (looked up): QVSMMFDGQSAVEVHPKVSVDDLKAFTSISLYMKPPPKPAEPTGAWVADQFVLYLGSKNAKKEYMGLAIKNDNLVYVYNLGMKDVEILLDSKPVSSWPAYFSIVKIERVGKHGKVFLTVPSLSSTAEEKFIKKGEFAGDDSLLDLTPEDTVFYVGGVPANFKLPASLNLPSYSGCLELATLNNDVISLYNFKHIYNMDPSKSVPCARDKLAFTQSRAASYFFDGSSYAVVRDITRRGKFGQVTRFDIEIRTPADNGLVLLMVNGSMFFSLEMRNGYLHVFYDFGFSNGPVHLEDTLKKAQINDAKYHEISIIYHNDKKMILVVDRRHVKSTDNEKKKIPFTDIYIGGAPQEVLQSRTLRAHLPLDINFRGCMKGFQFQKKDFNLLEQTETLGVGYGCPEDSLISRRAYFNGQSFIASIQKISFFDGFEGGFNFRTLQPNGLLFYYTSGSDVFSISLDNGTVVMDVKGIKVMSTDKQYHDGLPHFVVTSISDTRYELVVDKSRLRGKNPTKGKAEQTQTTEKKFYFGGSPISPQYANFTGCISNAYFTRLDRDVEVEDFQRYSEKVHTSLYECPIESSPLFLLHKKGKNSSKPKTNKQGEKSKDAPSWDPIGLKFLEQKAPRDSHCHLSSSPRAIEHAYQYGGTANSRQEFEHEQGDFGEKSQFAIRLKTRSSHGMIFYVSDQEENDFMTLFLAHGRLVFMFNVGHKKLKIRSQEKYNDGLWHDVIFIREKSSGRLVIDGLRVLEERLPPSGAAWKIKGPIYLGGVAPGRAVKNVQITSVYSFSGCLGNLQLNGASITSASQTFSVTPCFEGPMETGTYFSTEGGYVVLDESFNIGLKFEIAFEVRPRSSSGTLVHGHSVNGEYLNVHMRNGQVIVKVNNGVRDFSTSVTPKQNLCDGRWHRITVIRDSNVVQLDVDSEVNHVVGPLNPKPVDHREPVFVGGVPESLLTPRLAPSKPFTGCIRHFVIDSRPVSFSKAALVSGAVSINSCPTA

B1: mouse monoclonal antibody 15F7 (antibody, V domains shown)
VH: QVQLQQSGTELARPGAAVKLSCKASGYTFTSYGLSWVKQRAGQGLEWIGEIFPRSGNTYYNEKFKGKATLTADKSSSTAYMELRSLTSEDSAVYFCARGVRSPGAMDYWGQGTSVTVSS
VL: DIQMTQSSSSFSVSLGDRVTITCKASEDIYNRLAWYQQKPGNAPRLLISGATSLETGVPSRFSGSGSGKDYTLSITSLQTEDVATYYCQQYWSIPYTFGGGTNLEIKR
notes: Mouse hybridoma antibody; Mouse IgG1 is used as its control; also called m15F7; LG4-5-specific antibody 15F7
B2: mouse monoclonal antibody 6C12 (antibody, V domains shown)
VH: QVQLQQPGAELVKPGASVKLSCKASGYTFTTYWMHWVKQRPGQGPEWIGMIHPYSGAINYNEKFKSKATLTVDKSSSTAYMQLSSLTSEDSAVYYCVKQLRLLYYFDYWGQGTTLTVSS
VL: DIVMTQSPSSLTVTAGEKVTMSCKSRQSLLNSGNQKNYLTWYQQKPGQPPKVLIYWASTRESGVPDRFTGSGSGTDFTLTISSVQAEDLAVYYCQNDYSYPLTFGAGTKLELKR
B3: mouse monoclonal antibody 13G10 (antibody, V domains shown)
VH: QVQLQQSGAELARPGASVKLSCKASGYTFTNYGISWVKQRTGQGLEWIGAIYPRSGNTYYNEKFKGKATLTADKSSSTAYMELRSLTSEDSAVYFCARERDYGSSYALDYWGQGTSVTVSS
VL: B1 VL with S63T, I94P, Y96R, N103K

Tests used:
[1] = target: T1, human LAMA4 LG1-3 fragment displayed on …; experiment: flow cytometry on 293 cells displaying LAMA4 fragments (pDisplay)
Method: Monoclonal antibodies against the LG4-5 modules of the G domain of LAMA4 were generated as described in Materials and Methods. The specific binding between the monoclonal antibodies and the LG4-5 modules of the G domain of LAMA4 was confirmed by assessing the monoclonal antibodies' ability to stain LAMA4-fragment-displaying human embryonic kidney 293 cells by flow cytometry. Fluorescent signal was assessed via flow cytometric analyses and plotted as mean fluorescence intensity (MFI) as shown in FIG. 1. A LG1-3-specific LAMA4 antibody was able to bind 293 cells displaying LG1-5 and LG1-3, but not LG4-5 of the LAMA4 protein. Conversely, clones 6C12, 13G10, and 15F7 were able to specifically bind 293 cells displaying LG1-5 and LG4-5, but not LG1-3.
Human LAMA4 G-domains 1-5 and variants were cloned into pDisplay expression construct (Life Technologies) and transiently transfected into 293 cells using standard procedures. Anti-LAMA4 antibodies were incubated with cells for 30 min at 4° C. and followed by anti-mouse-650 for 30 minutes at 4° C. Cells were analyzed for anti-laminin binding by flow cytometry using standard procedures.

[2] = target: laminin 411 (LAMA4 in complex with gamma1 and beta1 chains); experiment: cell-based or functional assay
[3] = target: recombinant LG4-5 of LAMA4 coated on ELISA plates; experiment: cell-based or functional assay
[4] = target: T2, recombinant human His-laminin-α4 (R&D …); experiment: SPR (Biacore T200); Fab or captured-IgG format not given
[5] = target: T3, recombinant mouse His-laminin-α4 (R&D …); experiment: as above

Row | Binder | binding result [1] | inhibition of laminin-411-induced pAkt activation (pAkt/Akt ratio by immunoblot, WM266.4 cells; 20 ug/ml 15F7, 10 ug/ml laminin 411) [2] [%] | inhibition of LAMA4-mediated WM-266-4 human melanoma cell adhesion (antibody at 20 ug/ml) [3] [%] | Kd [4] [nM] | koff [4] [s⁻¹] | kon [4] [M⁻¹ s⁻¹] | Kd [5] [nM] | koff [5] [s⁻¹] | kon [5] [M⁻¹ s⁻¹]
1 | B1 | no binding | ~50 | ≥ 35 | 0.684 | 0.000781 | 1.14e+06 | 0.627 | 0.000658 | 1.05e+06
2 | B2 | no binding |  | ≥ 35 | 3.11 | 0.00102 | 328000 | 2.38 | 0.00111 | 469000
3 | B3 | no binding |  | ≥ 35 | 24.4 | 0.0074 | 302000 | 11.9 | 0.00449 | 378000
